Measured values from IntAct's records for PubMed 17875641.

B1: tRNA-specific adenosine deaminase subunit tad3 (Schizosaccharomyces pombe (strain ATCC 38366 / 972)), Q9P7N4 (parent)
chain: MVKTNISKNSPKEATVPELDWPFKLIKSHLETRKLETENVWIACFEPKYASKVTQYVKQIRSKQKESLLHCNRLRRIQDENGSLELQIIICPEKSMTANEIGKDFEDLGIVSKMIFLYAVPAFPPLTDEQFHEWNSVWPVSYRKHVQRQDVFTVHELKRIESILEDLINAAGASHKHGEIGCAAAIYDPTTDTVLAVSVDERSKLKNPINHCVMNAINLVAKRELSRRQNRTDGSKDRYLCKDLTVVMTHEPCVMCSMGLLHSRIRRLIYCKKQPLTGGIESLYGIHWRAELNHRYLAYSGWNKPVPSIKENIHV
partner: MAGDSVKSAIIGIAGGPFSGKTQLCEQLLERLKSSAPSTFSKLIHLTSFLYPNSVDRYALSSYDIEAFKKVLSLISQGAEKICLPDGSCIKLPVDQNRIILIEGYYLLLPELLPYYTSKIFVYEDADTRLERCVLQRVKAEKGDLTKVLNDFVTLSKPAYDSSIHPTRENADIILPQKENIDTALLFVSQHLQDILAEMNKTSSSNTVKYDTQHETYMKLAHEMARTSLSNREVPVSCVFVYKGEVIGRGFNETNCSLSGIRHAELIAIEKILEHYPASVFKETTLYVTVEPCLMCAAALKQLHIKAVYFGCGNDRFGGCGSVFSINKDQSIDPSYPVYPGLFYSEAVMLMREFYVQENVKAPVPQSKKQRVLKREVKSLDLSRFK

Variants of: B1
Conditions: with tad2_schpo tad2, O94642

Row | effect of a mutation on the interaction | Variant
1 | decreasing interaction | S257N
